Results taken from patent US20190040136A1 (AGENCY FOR SCIENCE TECHNOLOGY AND RESEARCH, published 2019).

Columns and labels:
[1] = target: T1, biotinylated recombinant human LAG-3 (human, UniProt P18627 23-450, limits assumed, biotinylated); assay: ELISA, antibody coated on the plate, biotinylated recombinant human LAG-3 titrated (x axis, nM), streptavidin detection, absorbance 450-570 nm
T1 construct: also called soluble recombinant human LAG-3 protein
T1 sequence (looked up): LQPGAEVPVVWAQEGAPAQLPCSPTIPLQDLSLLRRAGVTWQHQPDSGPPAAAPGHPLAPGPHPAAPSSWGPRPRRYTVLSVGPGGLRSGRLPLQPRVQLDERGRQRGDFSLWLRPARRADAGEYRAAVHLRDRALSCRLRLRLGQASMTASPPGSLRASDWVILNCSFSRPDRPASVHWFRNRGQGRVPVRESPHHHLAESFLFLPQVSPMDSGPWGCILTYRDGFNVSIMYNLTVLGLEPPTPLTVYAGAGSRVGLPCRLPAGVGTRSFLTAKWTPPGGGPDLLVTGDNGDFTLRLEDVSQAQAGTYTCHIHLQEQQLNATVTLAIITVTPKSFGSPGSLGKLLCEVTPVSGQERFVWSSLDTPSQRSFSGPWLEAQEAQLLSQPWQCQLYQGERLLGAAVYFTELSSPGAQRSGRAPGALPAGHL

[2] = target: T2, human LAG-3 coupled to phycoerythrin (human, UniProt P18627 23-450, limits assumed, coupled to phycoerythrin); assay: flow cytometry; inhibition of binding of PE-coupled human LAG-3 to MHC class II on Daudi cells
T2 construct: also called Labelled LAG-3
T2 sequence (looked up): T1 sequence (looked up)
Description: Daudi cells were plated in 96-well plates and fixed/permeabilised in Fix/Perm buffer in the presence of anti-CD16/CD32 antibody. Premixes were added onto the Daudi cells and incubated for 30 minutes at 4° C. The cells were then washed three times in Perm/Wash buffer, resuspended in PBS and analysed by flow cytometry.

[3] = target: T2, human LAG-3 coupled to phycoerythrin; assay: blocking assay, flow cytometry: labelled LAG-3 pre-incubated with Fab, then binding to MHC class II on Daudi cells, mean fluorescence intensity
[4] = target: T2, human LAG-3 coupled to phycoerythrin; assay: blocking assay, flow cytometry: phycoerythrin-coupled human LAG-3 pre-incubated with Fab, then binding to MHC class II on Daudi cells
[5] = target: T3, Human LAG-3 coupled to human Fc (human, UniProt P18627 23-450, limits assumed); assay: SPR (ProteOn XPR 36), human LAG-3-Fc immobilised, A6 Fab as analyte at five concentrations (L1A1-L1A5)
T3 construct: also called LAG-3-Fc; human LAG-3-Fc; not shown: human Fc
T3 sequence (looked up): T1 sequence (looked up)
Description: (§1) Association and dissociation rates were measured with a ProteOn XPR 36 analyser (Biorad) and the affinity (KD) was calculated.

[6] = target: T3, Human LAG-3 coupled to human Fc; assay: SPR (ProteOn XPR 36), human LAG-3-Fc immobilised, A6 Fab as analyte
Description: as §1

[7] = target: T4, human LAG-3 (Bio-Layer Interferometry; construct not stated) (human, UniProt P18627 23-450, limits assumed); assay: Bio-Layer Interferometry
T4 sequence (looked up): T1 sequence (looked up)

[8] = target: T5, mouse LAG-3 coupled to human Fc (mouse, UniProt Q61790 24-442, limits assumed); assay: ELISA, plate coated with mouse LAG-3-Fc, crude periplasmic Fab extract, anti-human Fab-HRP, absorbance 450-670 nm
T5 construct: also called murine LAG-3; Fc-coupled murine LAG-3; not shown: human Fc
T5 sequence (looked up): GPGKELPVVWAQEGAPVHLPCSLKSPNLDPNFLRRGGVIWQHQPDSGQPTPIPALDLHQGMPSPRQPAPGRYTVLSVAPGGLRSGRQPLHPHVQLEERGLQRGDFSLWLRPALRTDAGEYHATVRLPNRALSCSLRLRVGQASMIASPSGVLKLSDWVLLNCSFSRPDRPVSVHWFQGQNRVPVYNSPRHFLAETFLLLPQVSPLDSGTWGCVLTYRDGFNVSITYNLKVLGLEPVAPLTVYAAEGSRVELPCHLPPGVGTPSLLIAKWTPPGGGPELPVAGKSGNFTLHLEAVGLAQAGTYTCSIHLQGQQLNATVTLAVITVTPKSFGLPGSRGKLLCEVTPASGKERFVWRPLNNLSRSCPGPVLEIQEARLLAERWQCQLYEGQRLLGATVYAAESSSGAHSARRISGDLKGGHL
Description: After extensive washes in PBS Tween-20, crude periplasmic extracts from the induction were transferred into the ELISA wells in the presence of 7% milk in PBS. After 90 minutes at room temperature under agitation and extensive washes, a goat anti-human Fab antibody coupled to HRP was added. One hour la ter, plates were washed and TMB substrate was added. The reaction was stopped with 1M HCl and optical density was measured at 450 nm with a reference at 670 nm. Antibodies giving an absorbance >0.1 were selected as positive. A first clonality screening was performed by DNA fingerprinting; clonality was then confirmed by sequencing.

[9] = target: T5, mouse LAG-3 coupled to human Fc; assay: ELISA, plate coated with mouse LAG-3 coupled to human Fc, Fab, absorbance 450-670 nm

B1: anti-LAG-3 antibody clone A6 in IgG1 format (antibody, V domains shown)
VH: EVQLVQSGAEVKKPGSSVKVSCKASGYTFTSYYMHWVRQAPGQGLEWMGIINPSGGSTSYAQKFQGRVTMTRDTSTSTVYMELSSLRSEDTAVYYCAMPFGDFDYWGQGTLVTVSS
VL: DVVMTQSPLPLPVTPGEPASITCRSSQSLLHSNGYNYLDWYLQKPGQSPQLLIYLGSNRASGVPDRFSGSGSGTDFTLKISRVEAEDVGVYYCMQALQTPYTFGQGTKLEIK
notes: also called A6 IgG1
EC50 (read off the curve) [1]: ~0.7 nM

B2: anti-LAG-3 antibody clone A6 Fab (Fab, V domains shown)
VH: B1 VH
VL: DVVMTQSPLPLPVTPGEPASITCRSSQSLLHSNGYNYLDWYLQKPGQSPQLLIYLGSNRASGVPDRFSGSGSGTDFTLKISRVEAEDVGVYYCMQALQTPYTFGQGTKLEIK
notes: Fab format, from a human phage display library; the constant domains of the Fab are not
IC50 [2]: 62.2 nM | IC50 (read off the curve) [3]: ~60 nM | IC50 [4]: 111 nM | Kd [5]: 2.18 nM | koff [5]: 0.000456 s⁻¹ | kon [5]: 209000 M⁻¹ s⁻¹ | Kd [6]: 2.2 nM

B3: anti-LAG-3 antibody clone A6 in IgG4 format (antibody, V domains shown)
VH: B1 VH
VL: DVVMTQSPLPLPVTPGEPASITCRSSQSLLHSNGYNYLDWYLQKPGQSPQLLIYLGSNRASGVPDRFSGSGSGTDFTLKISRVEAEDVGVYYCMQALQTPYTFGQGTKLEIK
notes: also called A6 IgG4
EC50 (read off the curve) [1]: ~0.6 nM

B4: anti-LAG-3 antibody clone A6 (format not stated) (antibody, V domains shown)
VH: B1 VH
VL: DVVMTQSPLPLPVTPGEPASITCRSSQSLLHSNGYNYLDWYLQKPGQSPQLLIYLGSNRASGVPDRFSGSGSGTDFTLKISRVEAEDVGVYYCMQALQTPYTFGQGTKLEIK
notes: also called antibody A6
Kd [7]: 1.25 nM

B5: anti-LAG-3 antibody clone F5 in IgG1 format (antibody, V domains shown)
VH: EVQLVQSGAEVKKPGASVKVSCKVSGYTLTELSMHWVRQTPGKGLEWMGGFDPEDGETIYAQKFQGRVTMTEDTSTDTAYMELSSLRSEDTAVYYCATTWFGELYYWGQGTLVTVSS
VL: ETTLTQSPGTLSLSPGERATLSCRASQSVSSGYLAWYQQKPGQAPRLLIYDASSRATGIPDRFSGSGSGADFTLTISRLQPEDFAVYYCQQYGSSRPGLTFGGGTRVEIK
notes: IgG1 format; also called F5-IgG1
EC50 (read off the curve) [1]: ~5 nM

B6: anti-LAG-3 antibody clone F5 in IgG4 format (antibody, V domains shown)
VH: B5 VH
VL: B5 VL
notes: also called F5 IgG4
EC50 (read off the curve) [1]: ~3 nM

B7: anti-LAG-3 antibody clone F5 Fab (Fab, V domains shown)
VH: B5 VH
VL: B5 VL
IC50 [4]: 3 nM | binding result [8]: no binding

B8: anti-LAG-3 antibody clone F5 (format not stated) (antibody, V domains shown)
VH: B5 VH
VL: B5 VL
notes: also called antibody F5
Kd [7]: 1.21 nM

B9: anti-LAG-3 antibody clone C12 Fab (Fab, V domains shown)
VH: QVQLVQSGAEVKKPGSSVKVSCKASGGTFSSYAISWVRQAPGQGLEWMGGIIPIFGTANYAQKFQGRVTITADESTSTAYMELSSLRSEDTAVYYCARALADFWSGYYYYYYMDVWGKGTTVTVSS
VL: DVVMTQSPLSLPVTPGEPASISCRSSQSLLHSDGYNYFDWYLQKPGQSPQLLIYLGSNRAAGVPDRFSGSGSGTDFTLKISRVEAEDVGVYYCMQGTHWPPTFGQGTKLEIK
IC50 [4]: 18 nM | binding result [8]: binds

B10: anti-LAG-3 antibody clone 1G11 Fab (Fab, V domains shown)
VH: QLQLQESGGDVVQPGRSLRLSCAASGFTFSSYGMHWVRQAPGKGLEWVAVISYDGSNKYYADSVKGRFTISRDNSKNTLYLQMNSLRAEDTAVYYCARLPGWGAYAFDIWGQGTMVTVSS
VL: EIVLTQSPGTLSLSPGERATLSCRASQSVSSSFLAWYQQKPGQAPRLLIYGASSRATGIPDRFSGSGSGTDFTLTISRLEPEDFAVYYCQQYGPSITFGGGTKVEIK
IC50 [2]: 378 nM | binding result [9]: binds

B11: anti-LAG-3 antibody clone G8 in IgG1 format (antibody, V domains shown)
VH: QVQLVQSGGGVVQPGRSLRLSCAASGFTFSSYAMHWVRQAPGKGLEWVAVISYDGSNKYYADSVKGRFTISRDNSKNTLYLQMNSLRAEDTAVYYCARDPDAANWGFLLYYGMDVWGQGTTVTVSS
VL: EIVLTQSPGTLSLSPGERATLSCTTSQSVSSTSLDWYQQKPGQAPRLLIYGASSRATGIPDRFSGSGSGTDFTLTISRLEPEDFAVYYCQQYGSSLLTFGGGTKVEIK
notes: IgG1 format; also called G8 IgG1
EC50 (read off the curve) [1]: ~0.8 nM

B12: anti-LAG-3 antibody clone C2 Fab (Fab, V domains shown)
VH: B11 VH
VL: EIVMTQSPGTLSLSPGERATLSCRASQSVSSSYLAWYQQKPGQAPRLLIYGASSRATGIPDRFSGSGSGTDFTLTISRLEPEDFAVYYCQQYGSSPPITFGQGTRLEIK
IC50 [4]: 33 nM | binding result [8]: no binding

B13: anti-LAG-3 antibody clone G8 Fab (Fab, V domains shown)
VH: B11 VH
VL: B11 VL
IC50 [4]: 12 nM | binding result [8]: no binding

B14: anti-LAG-3 antibody clone G8 (format not stated) (antibody, V domains shown)
VH: B11 VH
VL: B11 VL
notes: also called antibody G8
Kd [7]: 0.7 nM

B15: anti-LAG-3 antibody clone G8 in IgG4 format (antibody, V domains shown)
VH: B11 VH
VL: B11 VL
notes: also called G8 IgG4
EC50 (read off the curve) [1]: ~0.4 nM
